Patent US20240228572A1 (I2O THERAPEUTICS, published 2024)
Like-named read-outs stand apart in the source and are kept apart here. *1 amine or outer side, *2 acyl side, *3 side chain or, on linkers, in order; H or OH if unused. Bridges are numbered along the chain shown (N, C = ends). Primed or numbered codes have the meaning given here. Where no end group is shown, it is not given here. Side-chain parts run from the residue outwards. [ ]: non-standard residue; d: D form. The star is where a group is joined. dpeg″ = spacer —[CO(CH2)O(CH2)2O(CH2)NH]—, O=C(COCCOCN[*:1])[*:2]; dpeg = —[CO(CH2)O(CH2)2O(CH2)NH]— spacer, O=C(COCCOCN[*:1])[*:2]; C20 diacid = O=C(O)CCCCCCCCCCCCCCCCCCC(=O)*; γGlu = O=C(O)[C@H](CCC(=O)[*:2])N[*:1]; Aib = CC(C)(N)C(=O)O

How the values were obtained:
Test in all cases: cell-based or functional assay
[1] = target: T1, human GLP-1 receptor (GLP-1R) (human, UniProt P43220 24-463)
T1 sequence (P43220 24-463): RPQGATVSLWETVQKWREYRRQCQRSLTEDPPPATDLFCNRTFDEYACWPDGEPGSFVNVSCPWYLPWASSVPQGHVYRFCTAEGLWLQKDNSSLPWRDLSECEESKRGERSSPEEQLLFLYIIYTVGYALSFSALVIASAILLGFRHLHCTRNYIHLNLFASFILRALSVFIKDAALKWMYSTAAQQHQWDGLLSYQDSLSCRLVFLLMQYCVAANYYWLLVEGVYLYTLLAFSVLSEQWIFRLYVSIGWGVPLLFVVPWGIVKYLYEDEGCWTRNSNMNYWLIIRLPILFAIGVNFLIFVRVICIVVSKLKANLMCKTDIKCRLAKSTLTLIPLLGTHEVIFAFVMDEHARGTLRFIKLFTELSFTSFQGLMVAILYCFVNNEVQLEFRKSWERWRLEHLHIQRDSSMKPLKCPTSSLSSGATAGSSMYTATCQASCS

[2] = target: T2, human Glucagon receptor (GCGR) (human, UniProt P47871 26-477)
[3] = target: cynomolgus monkey Glucagon receptor (GCGR) (cynomolgus monkey)
hGIPR = target: T3, hGIPR (human, UniProt P48546 22-466)
T3 sequence (looked up): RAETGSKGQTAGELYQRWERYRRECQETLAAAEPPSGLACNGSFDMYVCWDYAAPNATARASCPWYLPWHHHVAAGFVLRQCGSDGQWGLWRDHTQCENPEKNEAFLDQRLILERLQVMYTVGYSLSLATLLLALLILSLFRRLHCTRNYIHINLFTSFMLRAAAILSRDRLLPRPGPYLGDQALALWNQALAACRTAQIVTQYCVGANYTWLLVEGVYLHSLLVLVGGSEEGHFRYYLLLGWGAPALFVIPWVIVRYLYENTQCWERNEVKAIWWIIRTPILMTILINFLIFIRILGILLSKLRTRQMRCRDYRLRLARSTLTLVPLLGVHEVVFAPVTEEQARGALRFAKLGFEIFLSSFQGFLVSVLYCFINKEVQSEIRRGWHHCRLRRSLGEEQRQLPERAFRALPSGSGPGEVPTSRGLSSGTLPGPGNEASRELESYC

[4] = target: T1, human GLP-1 receptor (GLP-1R); remark: listed apart in the source
[5] = target: rat Glucagon receptor (GCGR) (rat, UniProt P30082 27-485)
Sequence of rat Glucagon receptor (GCGR) (P30082 27-485): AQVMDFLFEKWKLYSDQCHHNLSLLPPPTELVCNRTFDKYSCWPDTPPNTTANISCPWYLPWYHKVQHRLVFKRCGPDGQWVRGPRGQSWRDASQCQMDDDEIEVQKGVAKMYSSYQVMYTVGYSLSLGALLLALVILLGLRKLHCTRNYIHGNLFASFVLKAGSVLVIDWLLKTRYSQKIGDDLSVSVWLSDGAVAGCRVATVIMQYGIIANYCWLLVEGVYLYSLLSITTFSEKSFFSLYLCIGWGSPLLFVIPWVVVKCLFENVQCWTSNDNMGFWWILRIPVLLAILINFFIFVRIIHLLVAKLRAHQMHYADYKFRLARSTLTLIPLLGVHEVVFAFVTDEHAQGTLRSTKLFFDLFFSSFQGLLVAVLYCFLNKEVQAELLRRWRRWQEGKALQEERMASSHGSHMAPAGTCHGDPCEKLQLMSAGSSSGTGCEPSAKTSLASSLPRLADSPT

[6] = target: T2, human Glucagon receptor (GCGR); remark: listed apart in the source

Binder | pEC50, cAMP accumulation [1] | pEC50, cAMP accumulation [2] | pEC50, cAMP accumulation [3] | pEC50, cAMP accumulation (hGIPR) | pEC50, cAMP accumulation [4] | pEC50, cAMP accumulation [5] | pEC50, cAMP accumulation [6]
Ac-YSHGTFTSDYSKYLD[Aib]KYAQK([γGlu-γGlu-dpeg″-C20 diacid])FVKWLEEEPSSGAPPPS-OH (lactam 24-28; SMILES CC(=O)N[C@@H](Cc1ccc(O)cc1)C(=O)N[C@@H](CO)C(=O)N[C@@H](Cc1c[nH]cn1)C(=O)NCC(=O)N[C@H](C(=O)N[C@@H](Cc1ccccc1)C(=O)N[C@H](C(=O)N[C@@H](CO)C(=O)N[C@@H](CC(=O)O)C(=O)N[C@@H](Cc1ccc(O)cc1)C(=O)N[C@@H](CO)C(=O)N[C@@H](CCCCN)C(=O)N[C@@H](Cc1ccc(O)cc1)C(=O)N[C@@H](CC(C)C)C(=O)N[C@@H](CC(=O)O)C(=O)NC(C)(C)C(=O)N[C@@H](CCCCN)C(=O)N[C@@H](Cc1ccc(O)cc1)C(=O)N[C@@H](C)C(=O)N[C@@H](CCC(N)=O)C(=O)N[C@@H](CCCCNC(=O)CC[C@H](NC(=O)CC[C@H](NC(=O)COCCOCNC(=O)CCCCCCCCCCCCCCCCCCC(=O)O)C(=O)O)C(=O)O)C(=O)N[C@@H](Cc1ccccc1)C(=O)N[C@H](C(=O)N[C@H]1CCCCNC(=O)CC[C@@H](C(=O)N[C@@H](CCC(=O)O)C(=O)N2CCC[C@H]2C(=O)N[C@@H](CO)C(=O)N[C@@H](CO)C(=O)NCC(=O)N[C@@H](C)C(=O)N2CCC[C@H]2C(=O)N2CCC[C@H]2C(=O)N2CCC[C@H]2C(=O)N[C@@H](CO)C(=O)O)NC(=O)[C@H](CCC(=O)O)NC(=O)[C@H](CC(C)C)NC(=O)[C@H](Cc2c[nH]c3ccccc23)NC1=O)C(C)C)[C@@H](C)O)[C@@H](C)O) [Compound A36] | < 9 pEC50 (-log M) | 10.8 pEC50 (-log M) |  |  |  |  | 
YSHGTFTSDYSKYLD[Aib]KYAQK([γGlu-γGlu-dpeg-C20 diacid])FV[Aib]WLEDEPSSGAPPPS-OH [Compound A6] | < 7 pEC50 (-log M) | 12.2 pEC50 (-log M) | 9.77 pEC50 (-log M) | < 9 pEC50 (-log M) | < 7 pEC50 (-log M) | 10.3 pEC50 (-log M) | 12.2 pEC50 (-log M)
Ac-YSHGTFTSDYSKYLDK([γGlu-γGlu-dpeg″-C20 diacid])KYAEKFVKWLEDEPSSGAPPPS-OH (lactam 20-24) [Compound A37] | < 9 pEC50 (-log M) | 11.5 pEC50 (-log M) |  |  |  |  | 
YSHGTFTSDYSKYLDK([γGlu-γGlu-dpeg-C20 diacid])KYAQEF[Aib]QWLEDEPSSGAPPPS-OH [Compound A7] | < 9 pEC50 (-log M) | 10.7 pEC50 (-log M) |  |  |  |  | 
YSHGTFTSDYSKYLD[Aib]KYAKK([γGlu-γGlu-dpeg″-C20 diacid])FVKWLEEEPSSGAPPPS-OH (lactam 24-28; N-terminus assumed; SMILES CC(C)C[C@@H]1NC(=O)[C@H](Cc2c[nH]c3ccccc23)NC(=O)[C@@H](NC(=O)[C@@H](NC(=O)[C@H](Cc2ccccc2)NC(=O)[C@H](CCCCNC(=O)CC[C@H](NC(=O)CC[C@H](NC(=O)COCCOCNC(=O)CCCCCCCCCCCCCCCCCCC(=O)O)C(=O)O)C(=O)O)NC(=O)[C@H](CCCCN)NC(=O)[C@H](C)NC(=O)[C@H](Cc2ccc(O)cc2)NC(=O)[C@H](CCCCN)NC(=O)C(C)(C)NC(=O)[C@H](CC(=O)O)NC(=O)[C@H](CC(C)C)NC(=O)[C@H](Cc2ccc(O)cc2)NC(=O)[C@H](CCCCN)NC(=O)[C@H](CO)NC(=O)[C@H](Cc2ccc(O)cc2)NC(=O)[C@H](CC(=O)O)NC(=O)[C@H](CO)NC(=O)[C@@H](NC(=O)[C@H](Cc2ccccc2)NC(=O)[C@@H](NC(=O)CNC(=O)[C@H](Cc2c[nH]cn2)NC(=O)[C@H](CO)NC(=O)[C@@H](N)Cc2ccc(O)cc2)[C@@H](C)O)[C@@H](C)O)C(C)C)CCCCNC(=O)CC[C@@H](C(=O)N[C@@H](CCC(=O)O)C(=O)N2CCC[C@H]2C(=O)N[C@@H](CO)C(=O)N[C@@H](CO)C(=O)NCC(=O)N[C@@H](C)C(=O)N2CCC[C@H]2C(=O)N2CCC[C@H]2C(=O)N2CCC[C@H]2C(=O)N[C@@H](CO)C(=O)O)NC(=O)[C@H](CCC(=O)O)NC1=O) [Compound A39] | < 9 pEC50 (-log M) | 11.7 pEC50 (-log M) |  |  |  |  | 
YSHGTFTSDYSKYLD[Aib]KYAEK([γGlu-γGlu-dpeg″-C20 diacid])FVKWLEEEPSSGAPPPS-OH (lactam 24-28; N-terminus assumed; SMILES CC(C)C[C@@H]1NC(=O)[C@H](Cc2c[nH]c3ccccc23)NC(=O)[C@@H](NC(=O)[C@@H](NC(=O)[C@H](Cc2ccccc2)NC(=O)[C@H](CCCCNC(=O)CC[C@H](NC(=O)CC[C@H](NC(=O)COCCOCNC(=O)CCCCCCCCCCCCCCCCCCC(=O)O)C(=O)O)C(=O)O)NC(=O)[C@H](CCC(=O)O)NC(=O)[C@H](C)NC(=O)[C@H](Cc2ccc(O)cc2)NC(=O)[C@H](CCCCN)NC(=O)C(C)(C)NC(=O)[C@H](CC(=O)O)NC(=O)[C@H](CC(C)C)NC(=O)[C@H](Cc2ccc(O)cc2)NC(=O)[C@H](CCCCN)NC(=O)[C@H](CO)NC(=O)[C@H](Cc2ccc(O)cc2)NC(=O)[C@H](CC(=O)O)NC(=O)[C@H](CO)NC(=O)[C@@H](NC(=O)[C@H](Cc2ccccc2)NC(=O)[C@@H](NC(=O)CNC(=O)[C@H](Cc2c[nH]cn2)NC(=O)[C@H](CO)NC(=O)[C@@H](N)Cc2ccc(O)cc2)[C@@H](C)O)[C@@H](C)O)C(C)C)CCCCNC(=O)CC[C@@H](C(=O)N[C@@H](CCC(=O)O)C(=O)N2CCC[C@H]2C(=O)N[C@@H](CO)C(=O)N[C@@H](CO)C(=O)NCC(=O)N[C@@H](C)C(=O)N2CCC[C@H]2C(=O)N2CCC[C@H]2C(=O)N2CCC[C@H]2C(=O)N[C@@H](CO)C(=O)O)NC(=O)[C@H](CCC(=O)O)NC1=O) [Compound A38] | < 9 pEC50 (-log M) | 11.4 pEC50 (-log M) |  |  |  |  | 
